Experimental findings from article PMC11559006, “Rab6a enables BICD2/dynein-mediated trafficking of human papillomavirus from the trans-Golgi network during virus entry” (mBio, 2024) are described below.

Ends that are not written are not given here.

This experiment deals with T1, HA-tagged constitutively active (CA) Rab6a mutant (Q72L) (UniProt P20340 2-208, Q72L).
T1 construct: Rab6a, amplified from EGFP-Rab6AQ72L (Addgene #49483); the forward primer puts ATG and the HA tag before the codons S-T-G-G (residue 2 onward), the reverse primer ends at the stop codon after ...GGCSC; The vector is called pCMV-FLAG; also called HA-tagged CA Rab6a; GTP-Rab6a; source: HEK293TT, transfected, purified (anti-HA agarose, eluted with HA peptide); not shown: HA, N-terminal, kept
The experiment is described as follows: pull-down; 5 µg biotinylated peptide incubated with purified protein (~20 nM FLAG-BICD2 or HA-tagged CA or DN Rab6a) in HN buffer (50 mM HEPES, 150 mM NaCl) with 0.1% Triton, 1 mM DTT, 2 h at 4°C; streptavidin magnetic beads; western blot for HA or FLAG. The note with it: both partners purified. (Immunoblotting shows a protein as a band on a membrane.)

B1: biotinylated HPV16 L2 peptide, amino acids 434–461 (peptide)
peptide: SPQYTIIADAGDFYLHPSYYMLRKRRKR
modifications: also: further groups not given here
notes: HPV16 minor capsid protein L2, amino acids 434-461 of full-length HPV16 L2; also called L2 C; peptide 434–461; source: synthetic peptide, bought: GenScript or Promega
On to B1, for which the binding result is “binds”.
